Laboratory results as given in publication PMC12790805, “The Structure of the Drp1 Lattice on Membrane” (Journal of molecular biology, 2025).
Where “and” joins values, the source holds several entries; their conditions need not be identical. Identical values can stand only once.

Experiments:
[1] = target: Drp1 with deletion of the MoRF-1 sequence (human) (UniProt O00429); experiment: mass photometry; Drp1 in solution; molecular weight determined by mass photometry; conditions not given
[2] = target: the molecule itself; experiment: as above

Molecule | stoichiometry N [1] | stoichiometry N [2]
Drp1 with deletion of the MoRF-1 sequence (from UniProt O00429-4 1-699) (enzyme) | 2 | 
dynamin-related protein 1 (Drp1) isoform 3, full-length human (enzyme, UniProt O00429-4 1-699, looked up, human dynamin-related protein 1 (Drp1), isoform 3, UniProt O00429-4, full length; CBP tag removed with PreScission protease; also called Drp1-3; WT; source: E. coli BL21 (DE3) Star, purified (calmodulin agarose, SEC)) MEALIPVINKLQDVFNTVGADIIQLPQIVVVGTQSSGKSSVLESLVGRDLLPRGTGIVTRRPLILQLVHVSQEDKRKTTGEENGVEAEEWGKFLHTKNKLYTDFDEIRQEIENETERISGNNKGVSPEPIHLKIFSPNVVNLTLVDLPGMTKVPVGDQPKDIELQIRELILRFISNPNSIILAVTAANTDMATSEALKISREVDPDGRRTLAVITKLDLMDAGTDAMDVLMGRVIPVKLGIIGVVNRSQLDINNKKSVTDSIRDEYAFLQKKYPSLANRNGTKYLARTLNRLLMHHIRDCLPELKTRINVLAAQYQSLLNSYGEPVDDKSATLLQLITKFATEYCNTIEGTAKYIETSELCGGARICYIFHETFGRTLESVDPLGGLNTIDILTAIRNATGPRPALFVPEVSFELLVKRQIKRLEEPSLRCVELVHEEMQRIIQHCSNYSTQELLRFPKLHDAIVEVVTCLLRKRLPVTNEMVHNLVAIELAYINTKHPDFADACGLMNNNIEEQRRNRLARELPSAVSRDKVASGGGGVGDGVQEPTTGNWRGMLKTSKAEELLAEEKSKPIPIMPASPQKGHAVNLLDVPVPVARKLSAREQRDCEVIERLIKSYFLIVRKNIQDSVPKAVMHFLVNHVKDTLQSELVGQLYKSSLLDDLLTESEDMAQRRKEAADMLKALQGASQIIAEIRETHLW |  | 2 and 4 and 6
